In the supplement of paper PMC10567573:

B1: DLC1 (parent)
chain: AIQGISEKEKAEIEAKEACDWLRA
B2: NET1 (parent)
chain: RVRPLARVTSLANLISPVRNGAVR

Variants of: B1
Experiment: protein stability index of a GFP-peptide fusion (GPS, HEK-293T) (PSI 1-6); higher = more stable
Details: c terminus: a fixed tail appended
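Note: lentivirally expressed fusions sorted by FACS into six bins by GFP to DsRed ratio, PSI derived from sequencing read proportions per bin multiplied by bin number.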

Protein stability index, by site and new letter:
D20: Q 3.91; C 3.21; Y 3.97; F 3.75; M 3.63; E 4.27; K 4.05; I 3.35; P 3.56; T 4.12; G 3.56; H 3.95; A 3.99; S 4.28; W 3.98; N 4.3; L 3.68; R 3.19; V 3.81
R23: W 4.91; K 4.62; A 4.67; T 5.14; V 4.31; S 4.95; Q 5.25; E 5.36; Y 3.8; H 4.75; L 3.87; C 4.73; N 5.1; I 4.68; M 4.45; P 4.7; F 4.33; D 5.42; G 4.42
A18: Y 4.33; W 4.27; V 4.26
A24: M 3.52; L 4.46; W 3.7; N 4.75; G 4.78; F 4.32; S 4.65; Q 4.67; V 4.58; I 4.44; R 4.23; D 5.14; T 4.46; E 5.03; K 4; H 4.66; C 4.55; Y 4.72; P 4.64
L22: E 5.62; C 4.17; Q 5.03; T 4.82; S 5.09; A 5.03; Y 4.22; N 5.24; P 5.2; R 4.5; K 5.38; V 4.73; H 5; F 4.61; W 4.28; M 4.73; I 4.98; G 4.98; D 5.49
W21: V 4.89; K 5.44; Y 4.68; T 5.17; D 5.77; N 5.1; E 5.01; A 5.41; L 5.22; H 5.29; C 5.35; F 4.66; Q 5.47; S 5.05; R 5.4; G 5.35; P 5; M 5.6; I 4.62
C19: I 4.09; E 5.65; A 4.79; H 4.75; L 3.98; T 5.12; Y 4.64; K 4.63; W 4.45; F 4.47; M 4.39; R 4.45; G 4.43; P 4.33; N 4.89; S 4.6; D 5.19; Q 4.77; V 4.77

Variants of: B2
Experiment: as above
Details: c terminus: a fixed tail appended

Protein stability index of substitutions, site by site:
V2: S 3.57; W 2.67; H 2.91; Y 2.62; L 2.29; Q 3.59; D 3.77; K 3.65; E 3.69; G 3.08; I 2.25; C 2.64; T 3.14; F 1.97; A 3; P 3.11; M 3.04; N 2.79; R 2.92
R1: Y 2.22; L 2; F 3.21; T 3.25; H 2.87; S 3.43; C 2.61; G 3.11; V 2.15; Q 3.19; D 3.73; W 2.36; E 2.79; K 2.97; P 3.11; M 2.97; I 2.81; N 3.42
R3: H 2.67; P 3.49; D 3.03; M 2.46; N 2.36; C 1.72; I 2.22; L 2.34; K 2.81; G 3.1; E 2.59; A 3.02; F 2.69
